Assay results taken from patent publication US20210388087A1 (Chugai, published 2021).
Positions count from the first letter of the chain named. In names and notes the source's numbering stands.

T1: Human CD3eg linker (human)
T1 construct: single-chain construct; also called recombinant human CD3
T1 chain: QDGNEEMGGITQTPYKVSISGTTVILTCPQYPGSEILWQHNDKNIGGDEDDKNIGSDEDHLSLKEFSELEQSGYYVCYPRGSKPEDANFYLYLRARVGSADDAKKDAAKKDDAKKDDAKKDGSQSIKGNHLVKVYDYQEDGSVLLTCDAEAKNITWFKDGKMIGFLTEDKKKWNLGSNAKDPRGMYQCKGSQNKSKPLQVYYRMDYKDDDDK

B1: dBBDu183H T100bR/dBBDu072L (antibody, name in Kabat numbering, V domains shown)
VH: QVQLVESGGGLVQPGRSLRLSCAASGFTFSNAWMHWVRQAPGKGLEWVAQIKDKGNAYAAYYAPSVKGRFTISRDDSKNSIYLQMNSLKTEDTAVYYCHYVHYASASRVLPAFGVDAWGQGTTVTVSS
VL: DIVMTQSPLSLPVTPGEPASISCQASQELVHMNRNTYLHWYQQKPGQAPRLLIYKVSNRFPGVPDRFSGSGSGTDFTLKISRVEAEDVGVYYCAQGTSVPFTFGQGTKLEIK
B2: dBBDu183H V100cT/dBBDu072L (antibody, name in Kabat numbering, V domains shown)
VH: B1 VH with R108T, V109T
VL: B1 VL
B3: dBBDu183H V63Q/dBBDu072L (antibody, name in Kabat numbering, V domains shown)
VH: B1 VH with V66Q, R108T
VL: B1 VL
B4: dBBDu183H V95W/dBBDu072L (antibody, name in Kabat numbering, V domains shown)
VH: B1 VH with V101W, R108T
VL: B1 VL
B5: dBBDu183H V63G/dBBDu072L (antibody, name in Kabat numbering, V domains shown)
VH: B1 VH with V66G, R108T
VL: B1 VL
B6: dBBDu183H V63E/dBBDu072L (antibody, name in Kabat numbering, V domains shown)
VH: B1 VH with V66E, R108T
VL: B1 VL
B7: dBBDu183H V100iD/dBBDu072L (antibody, name in Kabat numbering, V domains shown)
VH: B1 VH with R108T, V115D
VL: B1 VL
B8: dBBDu183H V100cK/dBBDu072L (antibody, name in Kabat numbering, V domains shown)
VH: B1 VH with R108T, V109K
VL: B1 VL
B9: dBBDu183H V63R/dBBDu072L (antibody, name in Kabat numbering, V domains shown)
VH: B1 VH with V66R, R108T
VL: B1 VL
B10: dBBDu183H V95D/dBBDu072L (antibody, name in Kabat numbering, V domains shown)
VH: B1 VH with V101D, R108T
VL: B1 VL
B11: dBBDu183H T100bY/dBBDu072L (antibody, name in Kabat numbering, V domains shown)
VH: B1 VH with R108Y
VL: B1 VL
B12: dBBDu183H V95R/dBBDu072L (antibody, name in Kabat numbering, V domains shown)
VH: B1 VH with V101R, R108T
VL: B1 VL
B13: dBBDu183H V95E/dBBDu072L (antibody, name in Kabat numbering, V domains shown)
VH: B1 VH with V101E, R108T
VL: B1 VL
B14: dBBDu183H V100cW/dBBDu072L (antibody, name in Kabat numbering, V domains shown)
VH: B1 VH with R108T, V109W
VL: B1 VL
B15: dBBDu183H V63W/dBBDu072L (antibody, name in Kabat numbering, V domains shown)
VH: B1 VH with V66W, R108T
VL: B1 VL
B16: dBBDu183H T100bW/dBBDu072L (antibody, name in Kabat numbering, V domains shown)
VH: B1 VH with R108W
VL: B1 VL
B17: dBBDu183H V100cN/dBBDu072L (antibody, name in Kabat numbering, V domains shown)
VH: B1 VH with R108T, V109N
VL: B1 VL
B18: dBBDu183H V100cS/dBBDu072L (antibody, name in Kabat numbering, V domains shown)
VH: B1 VH with R108T, V109S
VL: B1 VL
B19: dBBDu183H V95T/dBBDu072L (antibody, name in Kabat numbering, V domains shown)
VH: B1 VH with V101T, R108T
VL: B1 VL
B20: dBBDu183H T100bS/dBBDu072L (antibody, name in Kabat numbering, V domains shown)
VH: B1 VH with R108S
VL: B1 VL
B21: dBBDu183H V95Q/dBBDu072L (antibody, name in Kabat numbering, V domains shown)
VH: B1 VH with V101Q, R108T
VL: B1 VL
B22: dBBDu183H T100bV/dBBDu072L (antibody, name in Kabat numbering, V domains shown)
VH: B1 VH with R108V
VL: B1 VL
B23: dBBDu183H V95F/dBBDu072L (antibody, name in Kabat numbering, V domains shown)
VH: B1 VH with V101F, R108T
VL: B1 VL
B24: dBBDu183H V63N/dBBDu072L (antibody, name in Kabat numbering, V domains shown)
VH: B1 VH with V66N, R108T
VL: B1 VL
B25: dBBDu183H V100cG/dBBDu072L (antibody, name in Kabat numbering, V domains shown)
VH: B1 VH with R108T, V109G
VL: B1 VL
B26: dBBDu183H V100cE/dBBDu072L (antibody, name in Kabat numbering, V domains shown)
VH: B1 VH with R108T, V109E
VL: B1 VL
B27: dBBDu183H V100cQ/dBBDu072L (antibody, name in Kabat numbering, V domains shown)
VH: B1 VH with R108T, V109Q
VL: B1 VL
B28: dBBDu183H V100cH/dBBDu072L (antibody, name in Kabat numbering, V domains shown)
VH: B1 VH with R108T, V109H
VL: B1 VL
B29: dBBDu183H V95K/dBBDu072L (antibody, name in Kabat numbering, V domains shown)
VH: B1 VH with V101K, R108T
VL: B1 VL
B30: dBBDu183H V95S/dBBDu072L (antibody, name in Kabat numbering, V domains shown)
VH: B1 VH with V101S, R108T
VL: B1 VL
B31: dBBDu183H V63H/dBBDu072L (antibody, name in Kabat numbering, V domains shown)
VH: B1 VH with V66H, R108T
VL: B1 VL
B32: dBBDu183H V63T/dBBDu072L (antibody, name in Kabat numbering, V domains shown)
VH: B1 VH with V66T, R108T
VL: B1 VL
B33: dBBDu183H V95H/dBBDu072L (antibody, name in Kabat numbering, V domains shown)
VH: B1 VH with V101H, R108T
VL: B1 VL
B34: dBBDu183H V100cF/dBBDu072L (antibody, name in Kabat numbering, V domains shown)
VH: B1 VH with R108T, V109F
VL: B1 VL
B35: dBBDu183H V100cR/dBBDu072L (antibody, name in Kabat numbering, V domains shown)
VH: B1 VH with R108T, V109R
VL: B1 VL
B36: dBBDu183H V100cY/dBBDu072L (antibody, name in Kabat numbering, V domains shown)
VH: B1 VH with R108T, V109Y
VL: B1 VL
B37: dBBDu183H V95N/dBBDu072L (antibody, name in Kabat numbering, V domains shown)
VH: B1 VH with V101N, R108T
VL: B1 VL
B38: dBBDu183H V63S/dBBDu072L (antibody, name in Kabat numbering, V domains shown)
VH: B1 VH with V66S, R108T
VL: B1 VL
B39: dBBDu183H V100cD/dBBDu072L (antibody, name in Kabat numbering, V domains shown)
VH: B1 VH with R108T, V109D
VL: B1 VL
B40: dBBDu183H V63F/dBBDu072L (antibody, name in Kabat numbering, V domains shown)
VH: B1 VH with V66F, R108T
VL: B1 VL
B41: dBBDu183H V63D/dBBDu072L (antibody, name in Kabat numbering, V domains shown)
VH: B1 VH with V66D, R108T
VL: B1 VL
B42: dBBDu183H V95Y/dBBDu072L (antibody, name in Kabat numbering, V domains shown)
VH: B1 VH with V101Y, R108T
VL: B1 VL
B43: dBBDu183H V63K/dBBDu072L (antibody, name in Kabat numbering, V domains shown)
VH: B1 VH with V66K, R108T
VL: B1 VL
B44: dBBDu183H V63Y/dBBDu072L (antibody, name in Kabat numbering, V domains shown)
VH: B1 VH with V66Y, R108T
VL: B1 VL
B45: dBBDu183H V95G/dBBDu072L (antibody, name in Kabat numbering, V domains shown)
VH: B1 VH with V101G, R108T
VL: B1 VL

Target: T1, Human CD3eg linker
Assay: SPR, vs unmutated H183/L072

Binder	fold change of affinity [fold]
B1	1.8
B2	1
B3	1.2
B4	0
B5	1
B6	1.1
B7	2.4
B8	1.2
B9	1.2
B10	0
B11	1.8
B12	0
B13	0
B14	1.5
B15	0.8
B16	1.8
B17	1
B18	1.1
B19	0
B20	1.5
B21	0
B22	1.2
B23	0

Binder	fold change of affinity [fold]
B24	1.3
B25	1.5
B26	0.8
B27	1.4
B28	1.2
B29	0
B30	0
B31	1
B32	1.2
B33	0
B34	1.8
B35	1.5
B36	1.3
B37	0
B38	1.1
B39	0.8
B40	1.1
B41	1.3
B42	0
B43	1.3
B44	1.1
B45	0
